Measured values reported in patent publication US20230071765A1, “COMPOSITIONS HAVING THIOREDOXIN ACTIVITY AND RELATED METHODS” (ORPRO THERAPEUTICS, INC., priority 2020, published 2023).

What was measured:
[1] = check for precipitates by centrifugation; type: physicochemical; details: 25° C., 0-232 hours
Procedure: The stability of ORP100S without the red fraction was evaluated at room temperature (25° C.) by SEC analysis as described in the preceding Examples. Protein solutions were prepared in PBS (saline) at concentrations of 70, 80, 90, 100 and 110 mg/ml corresponding to 6.0, 6.8, 7.7, 8.5 and 9.4 mM. These were incubated at room temperature for 0, 20, 44, 68, 140, 188 and 232 hours. At each time point tubes were centrifuged at 1000 RFC to check for precipitates and percent monomeric ORP100S determined by SEC. Additionally, at the 68 hr time point DTNB assays were performed to evaluate the degree of reduction.

[2] = test system: CF patient sputum on wild type rat trachea; experiment: CF sputum transport ex vivo on excised rat trachea (μOCT); parameters: species or system human sputum
Procedure: To determine the effect of ORP100S on CF sputum transportability, sputum specimens spontaneously expectorated from 4 CF patients hospitalized for pulmonary exacerbation were collected and stored at 4° C. before being divided into 200 μL aliquots and treated with ORP100S (3 mM), PBS, DTT (1.6 mM), or DNase (10 or 25 μg/ml) on the day of or day following collection. Upon treatment, sputum aliquots were placed in a 37° C. water bath for 2 hrs and then applied (3 μl per sample) for μOCT imaging to the distal end of trachea excised from adult non-CF rats. Trachea were washed 2× with 500 μl of PBS before sputum addition. Sample conditions were applied in triplicate in random order at distinct anatomic locations—2 washes using 500 μl of PBS were performed between each sample addition—and at least 3 images were collected from each region of interest. Confirmation of trachea viability was obtained by imaging with PBS upon completion of the experiment.
One-micron resolution spectral domain μOCT was used to obtain measurements of mucociliary transport (MCT) rate and ciliary beat frequency (CBF) in HBE monolayers and of MCT rate of sputum ex vivo. This first-in-kind, high-speed (40 frames per second, 512 lines per frame) microscopic reflectance imaging modality enables simultaneous anatomic imaging in cell cultures and intact tissues that readily distinguishes the properties of CF compared to normal epithelia (Liu L, Chu K K, Houser G H, Diephuis B J, Li Y, Wilsterman E J, Shastry S, Dierksen G, Birket S E, Mazur M, et al., 2013, Method for quantitative study of airway functional microanatomy using micro-optical coherence tomography, PLoS One 8(1):e54473; Tuggle K L, Birket S E, Cui X, Hong J, Warren J, Reid L, Chambers A, Ji D, Gamber K, Chu K K, et al., 2014, Characterization of defects in ion transport and tissue development in Cystic Fibrosis Transmembrane Conductance Regulator (CFTR)-knockout rats. PLoS One 9(3):e91253). In addition to MCT rate and CBF, μOCT also has the capability to assess physical characteristics of the airway surface liquid. Images were captured, and MCT rate and CBF calculated, as described in the preceding references.
The effect of ORP100S on mucus clearance using intact rat trachea, which include the complexities of the airway surface such as gland expression of a fully differentiated mucosal surface, was further evaluated. […] MCT was measured by projecting a cross-sectional line through the mucus through time, with the slope of the particle trajectories indicating velocity. […]

B1: ORP100S: thioredoxin with monothiol active site, Cys35 and non-active Cys 62, 69 and 73 substituted with serine (SEQ ID NO:29) (protein)
chain: MVKQIESKTAFQEALDAAGDKLVVVDFSATWCGPSKMIKPFFHSLSEKYSNVIFLEVDVDDSQDVASESEVKSMPTFQFFKKGQKVGEFSGANKEKLEATINELV
modifications: synthetic peptide motif
Precipitate (all time points) ([1]; 70 mg/mL in PBS): None
Precipitate (all time points) ([1]; 80 mg/mL in PBS): None
Precipitate (all time points) ([1]; 90 mg/mL in PBS): None
Precipitate (all time points) ([1]; 100 mg/mL in PBS): None
Precipitate (all time points) ([1]; 110 mg/mL in PBS): None
sputum density vs. PBS-treated sputum ([2]; 3 mM, μOCT images): effective in decreasing sputum density
change in MCT rate normalized to the effect of PBS ([2]; sputum treated 2 hrs, ORP100S 3 mM, DTT 1.6 mM, DNase 10 or 25 μg/ml): 3.80±0.35 fold vs. PBS
MCT rate of treated sputum ([2]; sputum treated 2 hrs, ORP100S 3 mM, DTT 1.6 mM, DNase 10 or 25 μg/ml, PBS 0.97±0.17): 4.68±0.9 mm/min
